Measurements from patent US20220002417A1 (BAILI BIO CHENGDU PHARMACEUTICAL, published 2022).
Changes are numbered by the printed parent chain.

B1: AB5 (rabbit/human chimeric anti-PD-L1 antibody) (antibody, human IgG1, kappa, V domains shown)
VH: QSVEESGGRLVTPGTPLTLTCTVSGIDLNTYDMIWVRQAPGKGLEWIGIITYSGSRYYANWAKGRFTISKTSTTVDLRITSPTTEDTATYFCARDYMSGSHLWGPGTLVTVSS
VL: AYDMTQTPASVEVAVGGTVTIKCQASEDIYSFLAWYQLKPGQSPKLLIHSASSLASGVSSRFKGSGSGTHFTLTISGVECADAATYYCQQGYGKNNVDNAFGGGTEVVVKR
notes: Rabbit variable domains on human IgG1 / human kappa constant domains; also called AB5 CHIMERIC
B2: AB4HU (humanized form of antibody AB4) (antibody, human IgG1, kappa, V domains shown)
VH: EVQLVESGGGLVQPGGSLRLSCTVSGIDLSVINMGWVRQAPGKGLEWIGTITYVGNTYYASWAKGRFTISKTSTTVDLKITSPTTEDTAVYYCARESGTIYYSYFNLWGQGTLVTVSS
VL: AFELTQSPSSLSASVGDRVTIKCQASESISNYLSWYQQIPGKVPKLLIYYASNLASGVPSRFSGSGSGTDFTLTISSLQPEDVATYYCQSYYGGGSAYTFGGGTKVEIKR
notes: Humanized, human gamma-1 / kappa constant domains
B3: AB1HU (humanized form of antibody AB1) (antibody, human IgG1, kappa, V domains shown)
VH: EVQLLESGGGLVQPGGSLRLSCAASGFSFSSGYDMCWVRQAPGKGLEWIACIAAGSAGITYDANWAKGRFTISRDNSKNTLYLQMNSLRAEDTAVYYCARSAFSFDYAMDLWGQGTLVTVSS
VL: DIQMTQSPSTLSASVGDRVTITCQASQSISSHLNWYQQKPGKAPKLLIYKASTLASGVPSRFSGSGSGTEFTLTISSLQPDDFATYYCQQGYSWGNVDNVFGGGTKVEIKR
notes: as for B2
B4: AB3HU (humanized form of antibody AB3) (antibody, human IgG1, kappa, V domains shown)
VH: EVQLVESGGGLVQPGGSLRLSCAASGFSLSSYWMSWVRQAPGKGLEWIGVIDTNVYIYYANWAKGRFTISRDNSKNTLYLQMNSLRAEDTAVYYCARYVGNNDDYINLWGQGTLVTVSS
VL: DIQMTQSPSTLSASVGDRVTITCQSSQSVYNGYWLSWYQQKPGKAPKLLIYGASTLASGVPSRFSGSGSGTEFTLTISSLQPDDFATYYCLGSYTSSTENSFGGGTKVEIKR
notes: as for B2
B5: AB4 (rabbit/human chimeric anti-PD-L1 antibody) (antibody, human IgG1, kappa, V domains shown)
VH: QSVEESGGRLVTPGTPLTLTCTVSGIDLSVINMGWVRQAPGEGLEWIGTITYVGNTYYASWAKGRFTISKTSTTVDLKITSPTTEDTATYFCARESGTIYYSYFNLWGQGTLVTVSS
VL: AFELTQTPASVSEPVGGTVTIKCQASESISNYLSWYQQIPGQPPNLLIYYASNLASGVPSRFKGSGSGTEFTLTISDLECADAATYYCQSYYGGGSAYTFGGGTEVVVKR
notes: Rabbit variable domains on human IgG1 / human kappa constant domains; also called AB4 CHIMERIC
B6: AB2 (rabbit/human chimeric anti-PD-L1 antibody) (antibody, human IgG1, kappa, V domains shown)
VH: QSLEESGGRLVTPGTPLTLTCTTSGIDLSTYDMIWVRQAPGKGLEYIGIISYVGNTYYASWAKGRFTLSKTSTTVDLRITSPTTEDTATYFCARDFISGSHLWGPGTLVTVSS
VL: AYDMTQTPASVSAAVGGTVTINCQASESISSFLSWYQQKPGQRPRLLIFSASTLASGVPSRFKGSGSGTEFTLTISGVECADAATYYCQQGYSKSNVDNAFGGGTEVVVKR
notes: Rabbit variable domains on human IgG1 / human kappa constant domains; also called AB2 CHIMERIC
B7: AB2HU (humanized form of antibody AB2) (antibody, human IgG1, kappa, V domains shown)
VH: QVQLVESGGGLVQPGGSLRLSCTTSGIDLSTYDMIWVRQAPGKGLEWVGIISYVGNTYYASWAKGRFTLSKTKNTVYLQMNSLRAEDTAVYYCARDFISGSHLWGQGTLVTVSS
VL: AYDMTQSPSSVSASVGDRVTINCQASESISSFLSWYQQKPGKAPKLLIFSASTLASGVPSRFSGSGSGTDFTLTISSLQPEDFATYYCQQGYSKSNVDNAFGGGTKVEIKR
notes: as for B2
B8: AB5HU (humanized form of antibody AB5) (antibody, human IgG1, kappa, V domains shown)
VH: QSVEESGGGLVQPGGSLRLSCTASGIDLNTYDMIWVRQAPGKGLEWVGIITYSGSRYYANWAKGRFTISKDNTKNTVYLQMNSLRAEDTAVYYCARDYMSGSHLWGQGTLVTVSS
VL: B7 VL with N22K, S28D, S30Y, S34A, F49H, T53S, S93G, S95N
notes: as for B2
B9: AB3 (rabbit/human chimeric anti-PD-L1 antibody) (antibody, human IgG1, kappa, V domains shown)
VH: QEQLEESGGGLVTPGGTLTLTCTVSGFSLSSYWMSWVRQAPGKGLEWIGVIDTNVYIYYANWAKGRFTISKTSTTVDLKITSPTTEDTATYFCARYVGNNDDYINLWGPGTLVTVSS
VL: AVLTQTPSPVSAAVGGTVSISCQSSQSVYNGYWLSWYQQKPGQPPKLLIYGASTLASGVPSRFKGSGSGTQFTLTINDVQCDDAATYYCLGSYTSSTENSFGGGTEVVVKR
notes: Rabbit variable domains on human IgG1 / human kappa constant domains; also called AB3 CHIMERIC
B10: AB1 (rabbit/human chimeric anti-PD-L1 antibody) (antibody, human IgG1, kappa, V domains shown)
VH: QEQLVESGGGLVQPEGSLTLTCKASGFSFSSGYDMCWVRRAPGKGLEWIACIAAGSAGITYDANWAKGRFTISKTSSTTVTLQMTSLTAADTATYFCARSAFSFDYAMDLWGPGTLVTVSS
VL: DPVLTQTPASVEVAVGGTVTIKCQASQSISSHLNWYQQKPGQPPKLLIYKASTLASGVPSRFKGSGSGTEFTLTISSVQCDNAATYYCQQGYSWGNVDNVFGGGTEVVVKR
notes: Rabbit variable domains on human IgG1 / human kappa constant domains; purified by protein A from HEK-293 supernatants; also called AB1 CHIMERIC

Each binder was assayed against T1, human PD-L1 extracellular domain (human, UniProt Q9NZQ7 19-238) (assay: BLI (Octet Red 96), antibody on anti-human Fc biosensor, PD-L1 ECD in solution, 1:1 global fit).
T1 construct: also called recombinant PD-L1; recombinant human PD-L1 extracellular domain protein
T1 sequence (Q9NZQ7 19-238 limits assumed): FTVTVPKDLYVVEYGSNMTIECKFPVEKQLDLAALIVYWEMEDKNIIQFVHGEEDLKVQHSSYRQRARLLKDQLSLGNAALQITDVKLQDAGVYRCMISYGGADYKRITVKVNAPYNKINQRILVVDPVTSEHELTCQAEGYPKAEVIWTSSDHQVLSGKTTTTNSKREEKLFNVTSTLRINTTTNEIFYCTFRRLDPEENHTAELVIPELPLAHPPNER
Method: The binding kinetics of selected anti-PD-L1 antibodies AB1-AB5 and AB1HU-AB5HU was determined by bio-layer interferometry analysis on a ForteBio Octet Red 96 instrument. First, purified antibodies were produced by protein A chromatography using HEK-293 transiently-transfected antibody supernatants. This assay was performed by immobilizing the purified antibodies to anti-human Fc biosensors. PD-L1 binding to and dissociation from the biosensors was then observed at various concentrations of PD-L1. Specifically, eight anti-human Fc biosensors were placed into wells containing the same purified antibody for 5 minutes. Biosensors were equilibrated in kinetics buffer (Pall ForteBio) for 1 minute to establish a baseline. Association of PD-L1 was observed by placing the biosensors into wells containing various concentrations of human PD-L1 extracellular domain for 5 minutes. Dissociation was measured after transfer of the biosensors into kinetics buffer and monitoring the interferometry signals for 15 minutes. All steps of the assay were performed at 30° C. with shaking at 1000 RPM. The on and off rates (kon and koff) and the equilibrium binding constant KD were determined using the software provided by the manufacturer and were fit using a 1:1 binding global fit model comprising several of the concentrations tested.

Kd	koff	kon	Binder
0.286 nM	0.000175 s⁻¹	613000 M⁻¹ s⁻¹	B1
1.7 nM	0.000766 s⁻¹	451000 M⁻¹ s⁻¹	B2
0.422 nM	0.000239 s⁻¹	568000 M⁻¹ s⁻¹	B3
1.81 nM	0.000337 s⁻¹	186000 M⁻¹ s⁻¹	B4
1.01 nM	0.000422 s⁻¹	417000 M⁻¹ s⁻¹	B5
0.379 nM	0.000166 s⁻¹	438000 M⁻¹ s⁻¹	B6
0.366 nM	0.000203 s⁻¹	553000 M⁻¹ s⁻¹	B7
0.401 nM	0.000234 s⁻¹	583000 M⁻¹ s⁻¹	B8
0.467 nM	0.000144 s⁻¹	308000 M⁻¹ s⁻¹	B9
0.347 nM	0.00015 s⁻¹	433000 M⁻¹ s⁻¹	B10
